Laboratory results reported in patent US20250230240A1 (LAVA THERAPEUTICS N V, published 2025).

Key:
[1] = molecular target: Vγ9Vδ2 T cell receptor on expanded primary human Vγ9Vδ2 T cells (human) (UniProt Q99603); experiment: cell-based or functional assay
[2] = molecular target: Vγ9Vδ2 T cell receptor on expanded primary human Vγ9Vδ2 T cells (human), Q99603; experiment: cell-based or functional assay
[3] = molecular target: Recombinant human Vγ9Vδ2-Fc fusion protein (human) (UniProt Q99603); experiment: BLI (Octet RED96), Vγ9Vδ2-Fc captured on anti-human Fc sensors, VHH as analyte, 1:1 fit; mean of at least three measurements +/- SD
[4] = molecular target: Recombinant human Vγ9Vδ2-Fc fusion protein (human) (UniProt Q99603); experiment: BLI (Octet), single VHH on recombinant Vγ9Vδ2 TCR protein
[5] = molecular target: Recombinant human Vγ9Vδ2-Fc fusion protein (human) (UniProt Q99603); experiment: BLI (Octet), single VHH on recombinant Vγ9Vδ2 TCR
[6] = molecular target: T1, recombinant purified CD123-Fc fusion protein (Bio-Techne/R&D Systems) (human, UniProt P26951 19-305, limits assumed); experiment: BLI (Octet Red96e), CD123-Fc on anti-human IgG Fc capture sensors; measured twice, SD 0.7
T1 construct: Bought protein; also called recombinant CD123; not shown: Fc part of the bought fusion protein
T1 sequence (looked up): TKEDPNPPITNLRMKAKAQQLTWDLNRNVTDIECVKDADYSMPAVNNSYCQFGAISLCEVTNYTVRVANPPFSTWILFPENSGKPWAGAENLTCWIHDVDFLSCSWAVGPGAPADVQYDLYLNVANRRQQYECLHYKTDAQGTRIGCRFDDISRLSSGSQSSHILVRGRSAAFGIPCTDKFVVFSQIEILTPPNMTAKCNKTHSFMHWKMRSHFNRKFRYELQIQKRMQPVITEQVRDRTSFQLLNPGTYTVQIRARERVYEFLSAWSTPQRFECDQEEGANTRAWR
Experimental: Different sensors were then dipped in different concentrations of humanized 1D2-5C8var1 variants, starting at 50 nM and two-fold dilutions thereof; dilutions were made in 10x kinetic buffer (10×KB) provided by the supplier. From the obtained sensorgrams, the kinetic association- and dissociation rate constants were determined by curve fitting. The association- and dissociation rate constants, when fitting was possible, were used to calculate the affinity of the humanized 1D2-5C8var1 variants for binding to CD123. […] For reference, the non-humanized (parental) 1D2 was included in these experiments.

[7] = molecular target: T1, recombinant purified CD123-Fc fusion …; experiment: BLI (Octet Red96e), CD123-Fc on anti-human IgG Fc capture sensors; measured twice, SD 0.4
[8] = molecular target: T1, recombinant purified CD123-Fc fusion …; experiment: BLI (Octet Red96e), CD123-Fc on anti-human IgG Fc capture sensors; *low binding (>20 nM), one measurement only
[9] = molecular target: T1, recombinant purified CD123-Fc fusion …; experiment: BLI (Octet Red96e), CD123-Fc on anti-human IgG Fc capture sensors; measured twice, SD 4.3
[10] = molecular target: T1, recombinant purified CD123-Fc fusion …; experiment: BLI (Octet Red96e), CD123-Fc on anti-human IgG Fc capture sensors; measured twice, SD 7.5
[11] = molecular target: T1, recombinant purified CD123-Fc fusion …; experiment: BLI (Octet Red96e), CD123-Fc on anti-human IgG Fc capture sensors; measured twice, SD 1.5
[12] = molecular target: T1, recombinant purified CD123-Fc fusion …; experiment: BLI (Octet Red96e), CD123-Fc on anti-human IgG Fc capture sensors; measured twice, SD 0.5

Vγ9Vδ2 T cell receptor on expanded primary human Vγ9Vδ2 T cells (human), sequence (Q99603 21-122, stated change not applied, chain 1 of 2): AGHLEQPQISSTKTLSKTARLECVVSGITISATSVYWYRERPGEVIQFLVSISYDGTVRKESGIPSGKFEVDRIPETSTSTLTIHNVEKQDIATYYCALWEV
Vγ9Vδ2 T cell receptor on expanded primary human Vγ9Vδ2 T cells (human), sequence (A0JD36 20-115, stated change not applied, chain 2 of 2, further chain): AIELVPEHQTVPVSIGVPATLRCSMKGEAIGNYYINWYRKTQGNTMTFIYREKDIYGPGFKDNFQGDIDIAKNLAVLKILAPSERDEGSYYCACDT
Vγ9Vδ2 T cell receptor on expanded primary human Vγ9Vδ2 T cells (human), Q99603, sequence (Q99603 21-122, stated change not applied, chain 1 of 2): as the sequence (Q99603 21-122, stated change not applied, chain 1 of 2) above
Vγ9Vδ2 T cell receptor on expanded primary human Vγ9Vδ2 T cells (human), Q99603, sequence (A0JD36 20-115, stated change not applied, chain 2 of 2, further chain): as the sequence (A0JD36 20-115, stated change not applied, chain 2 of 2, further chain) above

## bispecific VHH 7D12-5C8 (non-humanized) (bispecific antibody)
[1]
  EC50 cytotoxicity (A431 tumour cell kill, 24 h): 0.009 nM
  EC50 degranulation (CD107A+ Vγ9Vδ2 T cells, 4 h, A431 target cells): 0.01 nM

B1: bispecific VHH 7D12var8-5C8var1-Y105F (bispecific antibody)
chain: EVQLVESGGGSVQPGGSLRLSCAASGRTSRSYGMGWFRQAPGKEREFVSGISWRGDSTGYADSVKGRFTISRDNAKNTVDLQMNSLRAEDTAVYYCAAAAGSAWYGTLYEYDYWGQGTLVTVSSGGGGSEVQLLESGGGSVQPGGSLRLSCAASGRPFSNYAMSWFRQAPGKEREFVSAISWSGGSTSYADSVKGRFTISRDNSKNTLYLQMNSLRAEDTAVYYCAAQFSGADFGFGRLGIRGYEYDYWGQGTQVTVSS
[2]
  EC50 cytotoxicity (A431 tumour cell kill, 24 h): 0.0025 nM
  EC50 degranulation (CD107A+ Vγ9Vδ2 T cells, 4 h, A431 target cells): 0.011 nM

B2: VHH 5C8var1 (VHH)
VHH: EVQLLESGGGSVQPGGSLRLSCAASGRPFSNYAMSWFRQAPGKEREFVSAISWSGGSTSYADSVKGRFTISRDNSKNTLYLQMNSLRAEDTAVYYCAAQFSGADYGFGRLGIRGYEYDYWGQGTQVTVSS
modifications: Y105 partly sulfated (as found for 5C8 and for 1D12var5-5C8var1)
[3]
  Kd: 0.81 nM

B3: VHH 5C8var1-Y105F (VHH)
VHH: EVQLLESGGGSVQPGGSLRLSCAASGRPFSNYAMSWFRQAPGKEREFVSAISWSGGSTSYADSVKGRFTISRDNSKNTLYLQMNSLRAEDTAVYYCAAQFSGADFGFGRLGIRGYEYDYWGQGTQVTVSS
[4]
  Kd: 0.74 nM
[3]
  Kd: 0.78 nM

B4: VHH 5C8var1-Y105S (VHH)
VHH: EVQLLESGGGSVQPGGSLRLSCAASGRPFSNYAMSWFRQAPGKEREFVSAISWSGGSTSYADSVKGRFTISRDNSKNTLYLQMNSLRAEDTAVYYCAAQFSGADSGFGRLGIRGYEYDYWGQGTQVTVSS
[3]
  Kd: 1.59 nM

B5: VHH 5C8var1-Y105F/G108A (VHH)
VHH: EVQLLESGGGSVQPGGSLRLSCAASGRPFSNYAMSWFRQAPGKEREFVSAISWSGGSTSYADSVKGRFTISRDNSKNTLYLQMNSLRAEDTAVYYCAAQFSGADFGFARLGIRGYEYDYWGQGTQVTVSS
[5]
  fold reduction of affinity against 5C8var1-Y105F: 10 fold
[4]
  Kd: 9.2 nM

B6: VHH 5C8var1-Y105F/R109A (VHH)
VHH: EVQLLESGGGSVQPGGSLRLSCAASGRPFSNYAMSWFRQAPGKEREFVSAISWSGGSTSYADSVKGRFTISRDNSKNTLYLQMNSLRAEDTAVYYCAAQFSGADFGFGALGIRGYEYDYWGQGTQVTVSS
[4]
  Kd: 1.2 nM

B7: VHH 5C8var1-Y105F/R109K (VHH)
VHH: EVQLLESGGGSVQPGGSLRLSCAASGRPFSNYAMSWFRQAPGKEREFVSAISWSGGSTSYADSVKGRFTISRDNSKNTLYLQMNSLRAEDTAVYYCAAQFSGADFGFGKLGIRGYEYDYWGQGTQVTVSS
[4]
  Kd: 0.82 nM

B8: SEQ ID NO 1 (Table 12): non-humanized (parental) anti-CD123 VHH 1D2 (VHH)
VHH: EVQLVESGGGLVQAGGSLRLSCAASGRTASSYVMGWFRQAPGKEREFVAVINWNGDSTYYTDSVKGRFAISRDNAKNTVYLQMNSLKPEDTAVYYCAADTRREWYRDGYWGPPARYEYDYRGQGTQVTVSS
notes: also called parental 1D2
[6]
  Kd: 3.1 nM

B9: SEQ ID NO 26 (Table 12): humanized 1D2 variant as bispecific VHH with 5C8var1 (bispecific antibody)
chain: EVQLVESGGGLVQPGGSLRLSCAASGRTASSYVMGWFRQAPGKEREFVSVINWNGDSTYYADSVKGRFTISRDNSKNTLYLQMNSLRAEDTAVYYCAADTRREWYRDGYWGPPARYEYDYRGQGTQVTVSSGGGGSEVQLLESGGGSVQPGGSLRLSCAASGRPFSNYAMSWFRQAPGKEREFVSAISWSGGSTSYADSVKGRFTISRDNSKNTLYLQMNSLRAEDTAVYYCAAQFSGADYGFGRLGIRGYEYDYWGQGTQVTVSS
[7]
  Kd: 7.2 nM

B10: SEQ ID NO 27 (Table 12): humanized 1D2 variant as bispecific VHH with 5C8var1 (bispecific antibody)
chain: EVQLVESGGGLVQPGGSLRLSCAASGRTASSYVMGWVRQAPGKEREWVSVINWNGDSTYYADSVKGRFTISRDNSKNTLYLQMNSLRAEDTAVYYCAADTRREWYRDGYWGPPARYEYDYRGQGTLVTVSSGGGGSEVQLLESGGGSVQPGGSLRLSCAASGRPFSNYAMSWFRQAPGKEREFVSAISWSGGSTSYADSVKGRFTISRDNSKNTLYLQMNSLRAEDTAVYYCAAQFSGADYGFGRLGIRGYEYDYWGQGTQVTVSS
[8]
  Kd: 24.5 nM

B11: SEQ ID NO 28 (Table 12): humanized 1D2 variant as bispecific VHH with 5C8var1 (bispecific antibody)
chain: EVQLVESGGGLVQPGGSLRLSCAASGRTASSYVMSWFRQAPGKEREWVAVINWNGDSTYYADSVKGRFTISRDNSKNTVYLQMNSLRAEDTAVYYCAADTRREWYRDGYWGPPARYEYDYRGQGTLVTVSSGGGGSEVQLLESGGGSVQPGGSLRLSCAASGRPFSNYAMSWFRQAPGKEREFVSAISWSGGSTSYADSVKGRFTISRDNSKNTLYLQMNSLRAEDTAVYYCAAQFSGADYGFGRLGIRGYEYDYWGQGTQVTVSS
[9]
  Kd: 14.9 nM

B12: SEQ ID NO 29 (Table 12): humanized 1D2 variant as bispecific VHH with 5C8var1 (bispecific antibody)
chain: EVQLVESGGGVVQPGGSLRLSCAASGRTASSYVMSWFRQAPGKEREWVAVINWNGDSTYYADSVKGRFTISRDNSKNTLYLQMNSLRAEDTAVYYCAADTRREWYRDGYWGPPARYEYDYRGQGTTVTVSSGGGGSEVQLLESGGGSVQPGGSLRLSCAASGRPFSNYAMSWFRQAPGKEREFVSAISWSGGSTSYADSVKGRFTISRDNSKNTLYLQMNSLRAEDTAVYYCAAQFSGADYGFGRLGIRGYEYDYWGQGTQVTVSS
[10]
  Kd: 20 nM

B13: SEQ ID NO 30 (Table 12): humanized 1D2 variant as bispecific VHH with 5C8var1 (bispecific antibody)
chain: EVQLVESGGGLVQPGGSLRLSCAASGRTASSYVMSWFRQAPGKEREFVAVINWNGDSTYYADSVKGRFTISRDNSKNTVYLQMNSLRAEDTAVYYCAADTRREWYRDGYWGPPARYEYDYRGQGTLVTVSSGGGGSEVQLLESGGGSVQPGGSLRLSCAASGRPFSNYAMSWFRQAPGKEREFVSAISWSGGSTSYADSVKGRFTISRDNSKNTLYLQMNSLRAEDTAVYYCAAQFSGADYGFGRLGIRGYEYDYWGQGTQVTVSS
[11]
  Kd: 7.7 nM

B14: SEQ ID NO 31 (Table 12): humanized 1D2 variant as bispecific VHH with 5C8var1 (bispecific antibody)
chain: EVQLVESGGGLVQPGGSLRLSCAASGRTASSYVMGWVRQAPGKGLEWVSVINWNGDSTYYADSVKGRFTISRDNSKNTLYLQMNSLRAEDTAVYYCAADTRREWYRDGYWGPPARYEYDYRGQGTLVTVSSGGGGSEVQLLESGGGSVQPGGSLRLSCAASGRPFSNYAMSWFRQAPGKEREFVSAISWSGGSTSYADSVKGRFTISRDNSKNTLYLQMNSLRAEDTAVYYCAAQFSGADYGFGRLGIRGYEYDYWGQGTQVTVSS
[8]
  Kd: 29.1 nM

B15: SEQ ID NO 33 (Table 12): humanized 1D2 variant as bispecific VHH with 5C8var1 (bispecific antibody)
chain: EVQLVESGGGLVQPGGSLRLSCAASGRTASSYVMSWFRQAPGKGLEWVAVINWNGDSTYYADSVKGRFTISRDNSKNTVYLQMNSLRAEDTAVYYCAADTRREWYRDGYWGPPARYEYDYRGQGTLVTVSSGGGGSEVQLLESGGGSVQPGGSLRLSCAASGRPFSNYAMSWFRQAPGKEREFVSAISWSGGSTSYADSVKGRFTISRDNSKNTLYLQMNSLRAEDTAVYYCAAQFSGADYGFGRLGIRGYEYDYWGQGTQVTVSS
[8]
  Kd: 44.1 nM

B16: SEQ ID NO 34 (Table 12): humanized 1D2 variant as bispecific VHH with 5C8var1 (bispecific antibody)
chain: EVQLVESGGGLVQAGGSLRLSCAASGRTASSYVMGWFRQAPGKEREWVAVINWNGDSTYYTDSVKGRFAISRDNAKNTVYLQMNSLRAEDTAVYYCAADTRREWYRDGYWGPPARYEYDYRGQGTQVTVSSGGGGSEVQLLESGGGSVQPGGSLRLSCAASGRPFSNYAMSWFRQAPGKEREFVSAISWSGGSTSYADSVKGRFTISRDNSKNTLYLQMNSLRAEDTAVYYCAAQFSGADYGFGRLGIRGYEYDYWGQGTQVTVSS
[12]
  Kd: 2.6 nM
